Assay results as given in patent US20190040102A1 (CDRD VENTURES, published 2019).
Starred links: 1 amine or outer side, 2 acyl side, 3 side chain; linkers in the order of their positions; H or OH if unused. Positions of bridges follow the written chain, without caps; N, C: chain ends. Non-standard residues stand in square brackets, D forms with d. *: point of attachment. dPhe(4-phenylureido) = D-4-(phenylureido)Phe, O=C(Nc1ccccc1)Nc1ccc(C[C@@H](N[*:1])C(=O)[*:2])cc1; thiocarbamate = -NH-(C=O)-S- bridge between side chains (disulfide isostere); dPhe(4-CONH2) = NC(=O)c1ccc(C[C@@H](N)C(=O)O)cc1; NMePhe(4-Cl) = CN[C@@H](Cc1ccc(Cl)cc1)C(=O)O; Phe(4-Cl) = N[C@@H](Cc1ccc(Cl)cc1)C(=O)O; NMeY = CN[C@@H](Cc1ccc(O)cc1)C(=O)O; dNMeY = CN[C@H](Cc1ccc(O)cc1)C(=O)O; NMeT = CN[C@H](C(=O)O)[C@@H](C)O; NMeC = CN[C@@H](CS)C(=O)O; dNMeC = CN[C@H](CS)C(=O)O; dDap = NC[C@@H](N)C(=O)O; Dap = NC[C@H](N)C(=O)O; Hexanoyl = CCCCCC(=O)*

Biological target: somatostatin receptor type 2 (SSTR2) (UniProt P30874 1-369)
Sequence (P30874 whole entry): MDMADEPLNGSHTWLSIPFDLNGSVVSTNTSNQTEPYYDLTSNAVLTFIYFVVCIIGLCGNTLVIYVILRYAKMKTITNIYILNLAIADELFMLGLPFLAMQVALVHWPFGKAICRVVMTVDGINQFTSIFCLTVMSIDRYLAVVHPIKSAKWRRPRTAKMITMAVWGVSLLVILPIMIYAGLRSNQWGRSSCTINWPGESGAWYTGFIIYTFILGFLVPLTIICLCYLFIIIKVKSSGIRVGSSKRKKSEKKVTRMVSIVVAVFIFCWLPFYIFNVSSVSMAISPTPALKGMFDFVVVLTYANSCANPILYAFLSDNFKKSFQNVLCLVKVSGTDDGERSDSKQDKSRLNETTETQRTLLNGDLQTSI
Assay: cell-based or functional assay

B1: Compound 72: H-Cpa-cyclo[DCys-Tyr-D-(4-carbamoyl)Phe-(N-alpha-Me)Lys-Thr-Cys]-DTyr-NH2 (peptide)
peptide: XXYXXTCX
HELM: PEPTIDE1{[N[C@@H](Cc1ccc(Cl)cc1)C(=O)[*:2]].[dC].Y.[NC(=O)c1ccc(C[C@@H](N[*:1])C(=O)[*:2])cc1].[meK].T.C.[dY].[am]}$PEPTIDE1,PEPTIDE1,2:R3-7:R3$$$V2.0
SMILES: C[C@@H](O)[C@@H]1NC(=O)[C@H](CCCCN)N(C)C(=O)[C@@H](Cc2ccc(C(N)=O)cc2)NC(=O)[C@H](Cc2ccc(O)cc2)NC(=O)[C@H](NC(=O)[C@@H](N)Cc2ccc(Cl)cc2)CSSC[C@@H](C(=O)N[C@H](Cc2ccc(O)cc2)C(N)=O)NC1=O
IC50 (PathHunter β-Arrestin, antagonist mode): 5.77 nM

B2: Compound 75: H-Cpa-[DCys-NMeTyr-DPhe(4-carbamoyl)-Lys-NMeThr-Cys]-DTyr-NH2 (peptide)
peptide: XXXXKXCX
HELM: PEPTIDE1{[N[C@@H](Cc1ccc(Cl)cc1)C(=O)[*:2]].[dC].[meY].[NC(=O)c1ccc(C[C@@H](N[*:1])C(=O)[*:2])cc1].K.[meT].C.[dY].[am]}$PEPTIDE1,PEPTIDE1,2:R3-7:R3$$$V2.0
SMILES: C[C@@H](O)[C@H]1C(=O)N[C@H](C(=O)N[C@H](Cc2ccc(O)cc2)C(N)=O)CSSC[C@@H](NC(=O)[C@@H](N)Cc2ccc(Cl)cc2)C(=O)N(C)[C@@H](Cc2ccc(O)cc2)C(=O)N[C@H](Cc2ccc(C(N)=O)cc2)C(=O)N[C@@H](CCCCN)C(=O)N1C
IC50 (PathHunter β-Arrestin, antagonist mode): > 1000 nM

B3: Compound 59: H-Cpa-[DCys-Tyr-DPhe(4-CN)-Lys-Thr-Cys]-DTyr-NH2 (peptide)
peptide: XXYXKTCX
HELM: PEPTIDE1{[N[C@@H](Cc1ccc(Cl)cc1)C(=O)[*:2]].[dC].Y.[N#Cc1ccc(C[C@@H](N[*:1])C(=O)[*:2])cc1].K.T.C.[dY].[am]}$PEPTIDE1,PEPTIDE1,2:R3-7:R3$$$V2.0
SMILES: C[C@@H](O)[C@@H]1NC(=O)[C@H](CCCCN)NC(=O)[C@@H](Cc2ccc(C#N)cc2)NC(=O)[C@H](Cc2ccc(O)cc2)NC(=O)[C@H](NC(=O)[C@@H](N)Cc2ccc(Cl)cc2)CSSC[C@@H](C(=O)N[C@H](Cc2ccc(O)cc2)C(N)=O)NC1=O
IC50 (PathHunter β-Arrestin, antagonist mode): 39.1 nM

B4: Compound 69: H-Cpa-cyclo[DDap-Tyr-DPhe(4-CONH2)-Lys-Thr-Asp]-DTyr-NH2 (peptide)
peptide: H-[Phe(4-Cl)][dDap]Y[dPhe(4-CONH2)]KTD[dY]-NH2
modifications: lactam 2-7; not fully specified; printed as H-Cpa-cyclo[DDap-Tyr-DPhe(4-CONH2)-Lys-Thr-Asp]-DTyr-NH2
IC50 (PathHunter β-Arrestin, antagonist mode): > 1000 nM

H-[Phe(4-Cl)][dC]Y[dPhe(4-CONH2)]KT[Dap][dY]-NH2 (bridge 2-7 via thiocarbamate) [Compound 62: H-Cpa-cyclo[DCys-Tyr-DPhe(4-CONH2)-Lys-Thr-Dap]-DTyr-NH2]
IC50 (PathHunter β-Arrestin, antagonist mode): > 1000 nM

B5: Compound 56: CH3(CH2)4(CO)-Cpa-cyclo[D-Cys-Tyr-D-Phe(4-carbamoyl)-Lys(Nε-Me)-Thr-Cys]-D-Tyr-NH2 (peptide)
peptide: Hexanoyl-[Phe(4-Cl)][dC]Y[dPhe(4-CONH2)]K(Me)TC[dY]-NH2
modifications: disulfide 2-7
SMILES: CCCCCC(=O)N[C@@H](Cc1ccc(Cl)cc1)C(=O)N[C@@H]1CSSC[C@@H](C(=O)N[C@H](Cc2ccc(O)cc2)C(N)=O)NC(=O)[C@H]([C@@H](C)O)NC(=O)[C@H](CCCCNC)NC(=O)[C@@H](Cc2ccc(C(N)=O)cc2)NC(=O)[C@H](Cc2ccc(O)cc2)NC1=O
IC50 (PathHunter β-Arrestin, antagonist mode): 1.6 nM

B6: Compound 70: H-Cpa-cyclo[DDap-Tyr-Xaa4-Lys-Thr-Asp]-DTyr-NH2 (peptide)
peptide: H-[Phe(4-Cl)][dDap]Y[dPhe(4-phenylureido)]KTD[dY]-NH2
modifications: lactam 2-7; not fully specified; printed as H-Cpa-cyclo[DDap-Tyr-Xaa4-Lys-Thr-Asp]-DTyr-NH2
IC50 (PathHunter β-Arrestin, antagonist mode): > 1000 nM

B7: Compound 78: H-Cpa-[NMeDCys-Tyr-DPhe(4-carbamoyl)-Lys-Thr-Cys]-DTyr-NH2 (peptide)
peptide: H-[Phe(4-Cl)][dNMeC]Y[dPhe(4-CONH2)]KTC[dY]-NH2
modifications: disulfide 2-7
SMILES: C[C@@H](O)[C@@H]1NC(=O)[C@H](CCCCN)NC(=O)[C@@H](Cc2ccc(C(N)=O)cc2)NC(=O)[C@H](Cc2ccc(O)cc2)NC(=O)[C@H](N(C)C(=O)[C@@H](N)Cc2ccc(Cl)cc2)CSSC[C@@H](C(=O)N[C@H](Cc2ccc(O)cc2)C(N)=O)NC1=O
IC50 (PathHunter β-Arrestin, antagonist mode): 6.79 nM

B8: Compound 73: H-Cpa-[DCys-Tyr-DPhe(4-carbamoyl)-Lys-NMeThr-Cys]-DTyr-NH2 (peptide)
peptide: XXYXKXCX
HELM: PEPTIDE1{[N[C@@H](Cc1ccc(Cl)cc1)C(=O)[*:2]].[dC].Y.[NC(=O)c1ccc(C[C@@H](N[*:1])C(=O)[*:2])cc1].K.[meT].C.[dY].[am]}$PEPTIDE1,PEPTIDE1,2:R3-7:R3$$$V2.0
SMILES: C[C@@H](O)[C@H]1C(=O)N[C@H](C(=O)N[C@H](Cc2ccc(O)cc2)C(N)=O)CSSC[C@@H](NC(=O)[C@@H](N)Cc2ccc(Cl)cc2)C(=O)N[C@@H](Cc2ccc(O)cc2)C(=O)N[C@H](Cc2ccc(C(N)=O)cc2)C(=O)N[C@@H](CCCCN)C(=O)N1C
IC50 (PathHunter β-Arrestin, antagonist mode): 547 nM

B9: Compound 76: H-Cpa-[DCys-Tyr-DPhe(4-carbamoyl)-Lys-Thr-NMeCys]-DTyr-NH2 (peptide)
peptide: H-[Phe(4-Cl)][dC]Y[dPhe(4-CONH2)]KT[NMeC][dY]-NH2
modifications: disulfide 2-7
SMILES: C[C@@H](O)[C@@H]1NC(=O)[C@H](CCCCN)NC(=O)[C@@H](Cc2ccc(C(N)=O)cc2)NC(=O)[C@H](Cc2ccc(O)cc2)NC(=O)[C@H](NC(=O)[C@@H](N)Cc2ccc(Cl)cc2)CSSC[C@@H](C(=O)N[C@H](Cc2ccc(O)cc2)C(N)=O)N(C)C1=O
IC50 (PathHunter β-Arrestin, antagonist mode): 400 nM

B10: Compound 80: H-NMeCpa-[DCys-NMeTyr-DPhe(4-carbamoyl)-Lys-NMeThr-Cys]-NMeDTyr-NH2 (peptide)
peptide: H-[NMePhe(4-Cl)][dC][NMeY][dPhe(4-CONH2)]K[NMeT]C[dNMeY]-NH2
modifications: disulfide 2-7
SMILES: CN[C@@H](Cc1ccc(Cl)cc1)C(=O)N[C@@H]1CSSC[C@@H](C(=O)N(C)[C@H](Cc2ccc(O)cc2)C(N)=O)NC(=O)[C@H]([C@@H](C)O)N(C)C(=O)[C@H](CCCCN)NC(=O)[C@@H](Cc2ccc(C(N)=O)cc2)NC(=O)[C@H](Cc2ccc(O)cc2)N(C)C1=O
IC50 (PathHunter β-Arrestin, antagonist mode): > 1000 nM

H-[Phe(4-Cl)][Dap]Y[dPhe(4-CONH2)]KTC[dY]-NH2 (bridge 2-7 via thiocarbamate) [Compound 61: H-Cpa-cyclo[Dap-Tyr-DPhe(4-CONH2)-Lys-Thr-Cys]-DTyr-NH2]
IC50 (PathHunter β-Arrestin, antagonist mode): > 1000 nM

{CH3O2C(CH2)2(CO)}-[Phe(4-Cl)][dC]Y[dPhe(4-CONH2)]K(Me)TC[dY]-NH2 (disulfide 2-7) [Compound 58: CH3O2C(CH2)2(CO)-Cpa-cyclo[D-Cys-Tyr-D-Phe(4-carbamoyl)-Lys(Nε-Me)-Thr-Cys]-D-Tyr-NH2]
IC50 (PathHunter β-Arrestin, antagonist mode): 2.36 nM

B11: Compound 71: H-Cpa-cyclo[DDap-Tyr-DPhe(4-CONH2)-Lys(Me)-Thr-Asp]-DTyr-NH2 (peptide)
peptide: H-[Phe(4-Cl)][dDap]Y[dPhe(4-CONH2)]K(Me)TD[dY]-NH2
modifications: lactam 2-7; not fully specified; printed as H-Cpa-cyclo[DDap-Tyr-DPhe(4-CONH2)-Lys(Me)-Thr-Asp]-DTyr-NH2
IC50 (PathHunter β-Arrestin, antagonist mode): 13.3 nM

H-[Phe(4-Cl)][dDap]Y[dPhe(4-CONH2)]KTC[dY]-NH2 (bridge 2-7 via thiocarbamate) [Compound 60: H-Cpa-cyclo[DDap-Tyr-DPhe(4-CONH2)-Lys-Thr-Cys]-DTyr-NH2]
IC50 (PathHunter β-Arrestin, antagonist mode): > 1000 nM

B12: Compound 74: H-Cpa-[DCys-NMeTyr-DPhe(4-carbamoyl)-Lys-Thr-Cys]-DTyr-NH2 (peptide)
peptide: XXXXKTCX
HELM: PEPTIDE1{[N[C@@H](Cc1ccc(Cl)cc1)C(=O)[*:2]].[dC].[meY].[NC(=O)c1ccc(C[C@@H](N[*:1])C(=O)[*:2])cc1].K.T.C.[dY].[am]}$PEPTIDE1,PEPTIDE1,2:R3-7:R3$$$V2.0
SMILES: C[C@@H](O)[C@@H]1NC(=O)[C@H](CCCCN)NC(=O)[C@@H](Cc2ccc(C(N)=O)cc2)NC(=O)[C@H](Cc2ccc(O)cc2)N(C)C(=O)[C@H](NC(=O)[C@@H](N)Cc2ccc(Cl)cc2)CSSC[C@@H](C(=O)N[C@H](Cc2ccc(O)cc2)C(N)=O)NC1=O
IC50 (PathHunter β-Arrestin, antagonist mode): 159 nM

B13: Compound 55: Ac-Gly-Cpa-cyclo[D-Cys-Tyr-D-Phe(4-carbamoyl)-Lys(Nε-Me)-Thr-Cys]-D-Tyr-NH2 (peptide)
peptide: Ac-G[Phe(4-Cl)][dC]Y[dPhe(4-CONH2)]K(Me)TC[dY]-NH2
modifications: disulfide 3-8
SMILES: CNCCCC[C@@H]1NC(=O)[C@@H](Cc2ccc(C(N)=O)cc2)NC(=O)[C@H](Cc2ccc(O)cc2)NC(=O)[C@H](NC(=O)[C@H](Cc2ccc(Cl)cc2)NC(=O)CNC(C)=O)CSSC[C@@H](C(=O)N[C@H](Cc2ccc(O)cc2)C(N)=O)NC(=O)[C@H]([C@@H](C)O)NC1=O
IC50 (PathHunter β-Arrestin, antagonist mode): 3.35 nM

B14: Compound 77: H-(N-Me)Cpa-cyclo[D-Cys-Tyr-D-Phe(4-carbamoyl)-Lys-Thr-Cys]-D-Tyr-NH2 (peptide)
peptide: XXYXKTCX
HELM: PEPTIDE1{[CN[C@@H](Cc1ccc(Cl)cc1)C(=O)[*:2]].[dC].Y.[NC(=O)c1ccc(C[C@@H](N[*:1])C(=O)[*:2])cc1].K.T.C.[dY].[am]}$PEPTIDE1,PEPTIDE1,2:R3-7:R3$$$V2.0
SMILES: CN[C@@H](Cc1ccc(Cl)cc1)C(=O)N[C@@H]1CSSC[C@@H](C(=O)N[C@H](Cc2ccc(O)cc2)C(N)=O)NC(=O)[C@H]([C@@H](C)O)NC(=O)[C@H](CCCCN)NC(=O)[C@@H](Cc2ccc(C(N)=O)cc2)NC(=O)[C@H](Cc2ccc(O)cc2)NC1=O
IC50 (PathHunter β-Arrestin, antagonist mode): 2.25 nM

H-[Phe(4-Cl)][dC]Y[dPhe(4-CONH2)]K(Me)T[Dap][dY]-NH2 (bridge 2-7 via thiocarbamate) [Compound 63: H-Cpa-cyclo[DCys-Tyr-DPhe(4-CONH2)-Lys(Me)-Thr-Dap]-DTyr-NH2]
IC50 (PathHunter β-Arrestin, antagonist mode): > 1000 nM

{2‑furoyl}-[Phe(4-Cl)][dC]Y[dPhe(4-CONH2)]K(Me)TC[dY]-NH2 (disulfide 2-7) [Compound 57: (Furan-2-carboxy)-Cpa-cyclo[D-Cys-Tyr-D-Phe(4-carbamoyl)-Lys(Nε-Me)-Thr-Cys]-D-Tyr-NH2]
IC50 (PathHunter β-Arrestin, antagonist mode): 3.65 nM

B15: Compound 79: H-Cpa-[DCys-Tyr-DPhe(4-carbamoyl)-Lys-Thr-Cys]-NMeDTyr-NH2 (peptide)
peptide: H-[Phe(4-Cl)][dC]Y[dPhe(4-CONH2)]KTC[dNMeY]-NH2
modifications: disulfide 2-7
SMILES: C[C@@H](O)[C@@H]1NC(=O)[C@H](CCCCN)NC(=O)[C@@H](Cc2ccc(C(N)=O)cc2)NC(=O)[C@H](Cc2ccc(O)cc2)NC(=O)[C@H](NC(=O)[C@@H](N)Cc2ccc(Cl)cc2)CSSC[C@@H](C(=O)N(C)[C@H](Cc2ccc(O)cc2)C(N)=O)NC1=O
IC50 (PathHunter β-Arrestin, antagonist mode): 28.7 nM
